Source: patent publication US9567641B2, “Combination therapy for the treatment of cancer using an anti-C-met antibody” (SAMSUNG ELECTRONICS CO., LTD., priority 2013, dated 2017)

Tests used:
Type in all cases: cell-based
[1] = tested on: MKN45 gastric cancer cell line; test: Synthetic lethal screening: siRNA plus anti-c-Met antibody, sensitization index (SI) by CellTiter Blue; conditions: MKN45 cells, 5 days
Protocol: To search genes capable of increasing efficacy when suppressed together with an anti-c-Met antibody, synthetic lethal screening was conducted using MKN45 gastric cancer cell line (JCRB, JCRB0254). The synthetic lethal screening was conducted using a total of 1310 genes related to c-Met including 638 genes of EGFR library (Science Signaling, 3, ra67).
First, 0.3 ul of RNAiMax (Life Technologies) and a mixture of two different kinds of 20 nM siRNAs (Qiagen) were added to a 96-well plate, which was incubated at a room temperature for 15 min, wherein RNAiMax and siRNAs were diluted in Opti-MEM (Life Technologies) and a total mixture volume was adjusted to reach 22 ul or so. 78 ul of MKN45 cells diluted in a 5% FBS-containing RPMI1640 medium (GIBCO) were seeded onto each well of the 96-well plate so that each well contained 5000 cells. […]
After 5 days, 20 ul of a diluting solution of CellTiter Blue (Promega, G8081) and HBSS at 1:1 was added to each well, which was incubated at 37° C. for 4 hours. Then, the number of cells was counted via fluorescence signals (560/590 nm), which were measured using Envision 2104 Multi-label Reader (Perkin Elmer).
Since an increase degree in the efficacy of an anti-c-Met antibody to be caused by the expression suppression of each gene was measured as a reduction in cell viability, SI (sensitization index) was calculated. […]

[2] = tested on: HT29 colorectal cancer cell line; test: Cell viability, CellTiter Glo, combination with L3-1Y/IgG2 antibody; conditions: L3-1Y/IgG2 antibody alone (negative control siRNA), 0-2 ug/ml, 72 h
Protocol: The efficacy of the combination administration of FGFR3 siRNA and L3-1Y/IgG2 antibody was examined in a colorectal cancer cell line on which the anti-c-Met antibody has no effects. For this, HT29 (ATCC, HTB-38) cells were used. As a control group, All Negative control siRNA (Qiagen, cat. no. 1027281) was used, and as a target siRNA, a mixture of two kinds of siRNAs (see Table 7) that had effects during the screening was used. Transfection was carried out by the same procedures as Example 3.1 and after 24 hours, the cultured cells were treated with L3-1Y/IgG2 antibody at 0 ug/ml, 0.016 ug/ml, 0.08 ug/ml, 0.4 ug/ml, and 2 ug/ml, respectively.
72 hours later after the treatment, 100 uL of CellTiter Glo solution (Promega, G7572) was added to each well, which was allowed to stay at a room temperature for 30 min. The number of cells was counted via luminescence signals, which were recorded using Envision 2104 Multi-label Reader (Perkin Elmer).

[3] = tested on: HCC1806 breast cancer cells; test: as above
Protocol: The efficacy of the combination administration of ITGB3 siRNA and L3-1Y/IgG2 antibody was examined in a breast cancer cell line on which the anti-c-Met antibody alone has no effects. For this, HCC1806 (ATCC, CRL-2335) and HCC1954 (ATCC, CRL-2338) cells were used.
As a control group, All Negative control siRNA (Qiagen, cat. no. 1027281) was used, and as a target siRNA, a mixture of two kinds of siRNAs (see Table 7) that had effects during the screening was used. Transfection was carried out by the same procedures as Example 3.1 and after 24 hours, the cultured cells were treated with L3-1Y/IgG2 antibody at 0 ug/ml, 0.016 ug/ml, 0.08 ug/ml, 0.4 ug/ml, or 2 ug/ml. 72 hours later after the treatment, 100 uL of CellTiter Glo solution (Promega, G7572) was added to each well, which was allowed to stay at a room temperature for 30 min. The number of cells was counted via luminescence signals, which were recorded using Envision 2104 Multi-label Reader (Perkin Elmer).
To verify the effect of the combination therapy using ITGB3 inhibitor and anti-c-Met antibody in breast cancer cells on which the anti-c-Met antibody has no effects, HCC1806 (ATCC, CRL-2335) cells were used. The HCC 1806 cells are a cell line known to have high amounts of c-Met.
5000 cells of HCC1806 cells were seeded onto a 96-well plate, and 24 hours after, the plate was treated with L3-1Y/IgG2 antibody and an ITGB3 inhibitor, cilengitide (Merck KGaA, EMD 121974). 72 hours later after the treatment, a change in the number of cells was measured using CellTiter Glo assay. Cilengitide was treated at a fixed concentration of 10 uM, and the L3-1Y/IgG2 antibody was treated by ⅕ dilution each time starting from 2 ug/ml. For comparison, the same test was conducted using L3-1Y/IgG2 antibody alone.
The efficacy of combination administration was examined in a breast cancer cell line on which the anti-c-Met antibody has no effects. For this, HCC1806 (ATCC, CRL-2335) cells were used.
5000 HCC1806 cells were seeded onto a 96-well plate and 24 hours after, the plate was treated with L3-1Y/IgG2 antibody and an AKT inhibitor, MK-2206 (Merck & Co Inc) and 72 hours later after the antibody treatment, a change in the number of cells was measured using CellTiter Glo assay. MK-2206 was treated at a fixed concentration of 10 uM, and the L3-1Y/IgG2 antibody was treated by ⅕ dilution each time starting from 2 ug/ml. For comparison, the same test was conducted using L3-1Y/IgG2 antibody alone.

B1: L3-1Y/IgG2: anti-c-Met antibody: huAbF46-H4-A1 heavy chain variable region, human IgG2 hinge and constant region, kappa light chain with H36Y (antibody)
heavy: EVQLVESGGGLVQPGGSLRLSCAASGFTFTDYYMSWVRQAPGKGLEWLGFIRNKANGYTTEYSASVKGRFTISRDNSKNTLYLQMNSLRAEDTAVYYCARDNWFAYWGQGTLVTVSSASTKGPSVFPLAPCSRSTSESTAALGCLVKDYFPEPVTVSWNSGALTSGVHTFPAVLQSSGLYSLSSVVTVPSSNFGTQTYTCNVDHKPSNTKVDKTVERKCCVECPPCPAPPVAGPSVFLFPPKPKDTLMISRTPEVTCVVVDVSHEDPEVQFNWYVDGVEVHNAKTKPREEQFNSTFRVVSVLTVVHQDWLNGKEYKCKVSNKGLPAPIEKTISKTKGQPREPQVYTLPPSREEMTKNQVSLTCLVKGFYPSDIAVEWESNGQPENNYKTTPPMLDSDGSFFLYSKLTVDKSRWQQGNVFSCSVMHEALHNHYTQKSLSLSPGK
light: DIQMTQSPSSLSASVGDRVTITCKSSQSLLASGNQNNYLAWYQQKPGKAPKMLIIWASTRVSGVPSRFSGSGSGTDFTLTISSLQPEDFATYYCQQSYSRPYTFGQGTKVEIKRTVAAPSVFIFPPSDEQLKSGTASVVCLLNNFYPREAKVQWKVDNALQSGNSQESVTEQDSKDSTYSLSSTLTLSKADYEKHKVYACEVTHQGLSSPVTKSFNRGEC
[1]
  final concentration that is approximately IC25~IC35: ~0.0625 μl/ml
[2]
  cancer cell growth inhibitory efficacy (cell viability): did not occur
[3]; L3-1Y/IgG2 antibody alone (1/5 dilutions from 2 ug/ml), 72 h
  growth inhibitory effect (cell viability): did not occur
[3]; L3-1Y/IgG2 antibody alone (negative control siRNA)
  cancer cell growth inhibitory efficacy (cell viability): did not occur
